According to patent US20240417459A1 (CELLDEX THERAPEUTICS, published 2024):

Target: T1, human ILT4 expressed on HEK293 cells (human, UniProt Q8N423 22-597)
T1 construct: also called LILRB2; LIR2
Assay: bifunctional flow cytometry: bispecific bound to HEK293 cells expressing human ILT4, then human PD-L1-msFc detected with PE anti-mouse IgG Fc
Method: Binding of bispecific constructs to ILT4 and PD-L1 was assessed using HEK293 cells expressing human ILT4. In brief, dilutions of the bispecific constructs were allowed to bind to the ILT4 expressing cell before adding human PD-L1-msFc that was detected with PE labeled goat anti-mouse IgG Fc-specific probe.

T1 sequence (Q8N423 other isoform, or with tags, fused parts or gaps limits assumed): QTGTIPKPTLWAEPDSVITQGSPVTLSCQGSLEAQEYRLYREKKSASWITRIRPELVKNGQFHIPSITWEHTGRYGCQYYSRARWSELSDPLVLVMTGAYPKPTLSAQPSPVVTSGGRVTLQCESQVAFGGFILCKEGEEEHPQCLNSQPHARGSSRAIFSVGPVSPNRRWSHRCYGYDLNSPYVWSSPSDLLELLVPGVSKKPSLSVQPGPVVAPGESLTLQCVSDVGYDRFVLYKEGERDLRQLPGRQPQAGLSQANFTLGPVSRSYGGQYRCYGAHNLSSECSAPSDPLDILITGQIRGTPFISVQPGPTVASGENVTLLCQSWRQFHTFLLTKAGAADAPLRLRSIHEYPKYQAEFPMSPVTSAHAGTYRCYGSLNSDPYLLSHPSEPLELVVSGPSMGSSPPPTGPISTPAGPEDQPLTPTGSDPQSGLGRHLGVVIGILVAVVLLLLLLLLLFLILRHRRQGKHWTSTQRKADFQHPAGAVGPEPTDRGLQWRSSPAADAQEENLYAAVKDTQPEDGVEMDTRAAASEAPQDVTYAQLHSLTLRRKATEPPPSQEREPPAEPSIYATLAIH

Binder	binding result
9H9-7B1 HL (bispecific antibody, human IgG1, kappa, Tetravalent bispecific: anti-PD-L1 9H9 on a mutated human IgG1 (AQQ Fc) with the 7B1 scFv (VH-VL) at the C-terminus of the heavy chain; also called 9H9 AQQ-7B1 H2L1; PD-L1xILT4 bispecific antibody) heavy: not shown light: DIQMTQSPSTLSASVGDRVTITCRASQSISGWLAWYQQKPGKAPKLLIYKASSLESGVPSRFSGSGSGTEFTLTISSLQPDDFATYYCQQYYGSSRTFGQGTNVEIKRTVAAPSVFIFPPSDEQLKSGTASVVCLLNNFYPREAKVQWKVDNALQSGNSQESVTEQDSKDSTYSLSSTLTLSKADYEKHKVYACEVTHQGLSSPVTKSFNRGEC	binds
9H9-7B1 LH (bispecific antibody, human IgG1, kappa, Tetravalent bispecific as 9H9-7B1 HL, but with the scFv in the VL-VH orientation; also called 9H9 AQQ-7B1 L1H2; PD-L1xILT4 bispecific antibody) heavy: not shown light: DIQMTQSPSTLSASVGDRVTITCRASQSISGWLAWYQQKPGKAPKLLIYKASSLESGVPSRFSGSGSGTEFTLTISSLQPDDFATYYCQQYYGSSRTFGQGTNVEIKRTVAAPSVFIFPPSDEQLKSGTASVVCLLNNFYPREAKVQWKVDNALQSGNSQESVTEQDSKDSTYSLSSTLTLSKADYEKHKVYACEVTHQGLSSPVTKSFNRGEC	binds
